According to paper PMC8298264, “Function of cofactor Akirin2 in the regulation of gene expression in model human neutrophil-like HL60 cells” (Bioscience Reports, 2021):

System: human HL60 cells
Test: SWATH-MS proteomics, differential protein representation, akirin2 KO vs WT HL60 cells
Format: cell-based
Details: akirin2 KO vs WT HL60 cells
How it was run: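 Read-out is label-free SWATH-MS protein area, globally normalized to total detected-protein area, with identifications held at 1% FDR against a library from information-dependent acquisition.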

[1] = SWATH-MS, under-represented in KO
[2] = sheet "Under-represented in KO"

Molecule | Fold Change [1] | Log (Fold Change) [1] | Fold Change [2] | Log (Fold Change) [2]
sp¦P10809¦CH60_HUMAN (protein, UniProt P10809 27-573, looked up) 60 kDa heat shock protein, …: AKDVKFGADARALMLQGVDLLADAVAVTMGPKGRTVIIEQSWGSPKVTKDGVTVAKSIDLKDKYKNIGAKLVQDVANNTNEEAGDGTTTATVLARSIAKEGFEKISKGANPVEIRRGVMLAVDAVIAELKKQSKPVTTPEEIAQVATISANGDKEIGNIISDAMKKVGRKGVITVKDGKTLNDELEIIEGMKFDRGYISPYFINTSKGQKCEFQDAYVLLSEKKISSIQSIVPALEIANAHRKPLVIIAEDVDGEALSTLVLNRLKVGLQVVAVKAPGFGDNRKNQLKDMAIATGGAVFGEEGLTLNLEDVQPHDLGKVGEVIVTKDDAMLLKGKGDKAQIEKRIQEIIEQLDVTTSEYEKEKLNERLAKLSDGVAVLKVGGTSDVEVNEKKDRVTDALNATRAAVEEGIVLGGGCALLRCIPALDSLTPANEDQKIGIEIIKRTLKIPAMTIAKNAGVEGSLIVEKIMQSSSEVGYDAMAGDFVNMVEKGIIDPTKVVRTALLDAAGVASLLTTAEVVVTEIPKEEKDPGMGAMGGMGGGMGGGMF | 0.7233 | -0.1407 |  | 
sp¦Q14C86¦GAPD1_HUMAN (protein, UniProt Q14C86 1-1478, looked up) GTPase-activating protein and …: MVKLDIHTLAHHLKQERLYVNSEKQLIQRLNADVLKTAEKLYRTAWIAKQQRINLDRLIITSAEASPAECCQHAKILEDTQFVDGYKQLGFQETAYGEFLSRLRENPRLIASSLVAGEKLNQENTQSVIYTVFTSLYGNCIMQEDESYLLQVLRYLIEFELKESDNPRRLLRRGTCAFSILFKLFSEGLFSAKLFLTATLHEPIMQLLVEDEDHLETDPNKLIERFSPSQQEKLFGEKGSDRFRQKVQEMVESNEAKLVALVNKFIGYLKQNTYCFPHSLRWIVSQMYKTLSCVDRLEVGEVRAMCTDLLLACFICPAVVNPEQYGIISDAPINEVARFNLMQVGRLLQQLAMTGSEEGDPRTKSSLGKFDKSCVAAFLDVVIGGRAVETPPLSSVNLLEGLSRTVVYITYSQLITLVNFMKSVMSGDQLREDRMALDNLLANLPPAKPGKSSSLEMTPYNTPQLSPATTPANKKNRLPIATRSRSRTNMLMDLHMDHEGSSQETIQEVQPEEVLVISLGTGPQLTPGMMSENEVLNMQLSDGGQGDVPVDENKLHGKPDKTLRFSLCSDNLEGISEGPSNRSNSVSSLDLEGESVSELGAGPSGSNGVEALQLLEHEQATTQDNLDDKLRKFEIRDMMGLTDDRDISETVSETWSTDVLGSDFDPNIDEDRLQEIAGAAAENMLGSLLCLPGSGSVLLDPCTGSTISETTSEAWSVEVLPSDSEAPDLKQEERLQELESCSGLGSTSDDTDVREVSSRPSTPGLSVVSGISATSEDIPNKIEDLRSECSSDFGGKDSVTSPDMDEITHGAHQLTSPPSQSESLLAMFDPLSSHEGASAVVRPKVHYARPSHPPPDPPILEGAVGGNEARLPNFGSHVLTPAEMEAFKQRHSYPERLVRSRSSDIVSSVRRPMSDPSWNRRPGNEERELPPAAAIGATSLVAAPHSSSSSPSKDSSRGETEERKDSDDEKSDRNRPWWRKRFVSAMPKAPIPFRKKEKQEKDKDDLGPDRFSTLTDDPSPRLSAQAQVAEDILDKYRNAIKRTSPSDGAMANYESTGDNHDRDLSSKLLYHSDKEVMGDGESAHDSPRDEALQNISADDLPDSASQAAHPQDSAFSYRDAKKKLRLALCSADSVAFPVLTHSTRNGLPDHTDPEDNEIVCFLKVQIAEAINLQDKNLMAQLQETMRCVCRFDNRTCRKLLASIAEDYRKRAPYIAYLTRCRQGLQTTQAHLERLLQRVLRDKEVANRYFTTVCVRLLLESKEKKIREFIQDFQKLTAADDKTAQVEDFLQFLYGAMAQDVIWQNASEEQLQDAQLAIERSVMNRIFKLAFYPNQDGDILRDQVLHEHIQRLSKVVTANHRALQIPEVYLREAPWPSAQSEIRTISAYKTPRDKVQCILRMCSTIMNLLSLANEDSVPGADDFVPVLVFVLIKANPPCLLSTVQYISSFYASCLSGEESYWWMQFTAAVEFIKTIDDRK | 0.7165 | -0.1448 |  | 
sp¦P23634¦AT2B4_HUMAN (protein, UniProt P23634 1-1241, looked up) Plasma membrane …: MTNPSDRVLPANSMAESREGDFGCTVMELRKLMELRSRDALTQINVHYGGVQNLCSRLKTSPVEGLSGNPADLEKRRQVFGHNVIPPKKPKTFLELVWEALQDVTLIILEIAAIISLVLSFYRPAGEENELCGQVATTPEDENEAQAGWIEGAAILFSVIIVVLVTAFNDWSKEKQFRGLQCRIEQEQKFSIIRNGQLIQLPVAEIVVGDIAQVKYGDLLPADGILIQGNDLKIDESSLTGESDHVKKSLDKDPMLLSGTHVMEGSGRMVVTAVGVNSQTGIILTLLGVNEDDEGEKKKKGKKQGVPENRNKAKTQDGVALEIQPLNSQEGIDNEEKDKKAVKVPKKEKSVLQGKLTRLAVQIGKAGLLMSALTVFILILYFVIDNFVINRRPWLPECTPIYIQYFVKFFIIGITVLVVAVPEGLPLAVTISLAYSVKKMMKDNNLVRHLDACETMGNATAICSDKTGTLTMNRMTVVQAYIGGIHYRQIPSPDVFLPKVLDLIVNGISINSAYTSKILPPEKEGGLPRQVGNKTECALLGFVTDLKQDYQAVRNEVPEEKLYKVYTFNSVRKSMSTVIRNPNGGFRMYSKGASEIILRKCNRILDRKGEAVPFKNKDRDDMVRTVIEPMACDGLRTICIAYRDFDDTEPSWDNENEILTELTCIAVVGIEDPVRPEVPDAIAKCKQAGITVRMVTGDNINTARAIATKCGILTPGDDFLCLEGKEFNRLIRNEKGEVEQEKLDKIWPKLRVLARSSPTDKHTLVKGIIDSTVGEHRQVVAVTGDGTNDGPALKKADVGFAMGIAGTDVAKEASDIILTDDNFTSIVKAVMWGRNVYDSISKFLQFQLTVNVVAVIVAFTGACITQDSPLKAVQMLWVNLIMDTFASLALATEPPTESLLKRRPYGRNKPLISRTMMKNILGHAFYQLIVIFILVFAGEKFFDIDSGRKAPLHSPPSQHYTIVFNTFVLMQLFNEINSRKIHGEKNVFSGIYRNIIFCSVVLGTFICQIFIVEFGGKPFSCTSLSLSQWLWCLFIGIGELLWGQFISAIPTRSLKFLKEAGHGTTKEEITKDAEGLDEIDHAEMELRRGQILWFRGLNRIQTQIDVINTFQTGASFKGVLRRQNMGQHLDVKLVPSSSYIKVVKAFHSSLHESIQKPYNQKSIHSFMTHPEFAIEEELPRTPLLDEEEEENPDKASKFGTRVLLLDGEVTPYANTNNNAVDCNQVQLPQSDSSLQSLETSV |  |  | 0.3316 | -0.4794
sp¦P08240¦SRPRA_HUMAN (protein, UniProt P08240 1-638, looked up) Signal recognition particle …: MLDFFTIFSKGGLVLWCFQGVSDSCTGPVNALIRSVLLQERGGNNSFTHEALTLKYKLDNQFELVFVVGFQKILTLTYVDKLIDDVHRLFRDKYRTEIQQQSALSLLNGTFDFQNDFLRLLREAEESSKIRAPTTMKKFEDSEKAKKPVRSMIETRGEKPKEKAKNSKKKGAKKEGSDGPLATSKPVPAEKSGLPVGPENGVELSKEELIRRKREEFIQKHGRGMEKSNKSTKSDAPKEKGKKAPRVWELGGCANKEVLDYSTPTTNGTPEAALSEDINLIRGTGSGGQLQDLDCSSSDDEGAAQNSTKPSATKGTLGGMFGMLKGLVGSKSLSREDMESVLDKMRDHLIAKNVAADIAVQLCESVANKLEGKVMGTFSTVTSTVKQALQESLVQILQPQRRVDMLRDIMDAQRRQRPYVVTFCGVNGVGKSTNLAKISFWLLENGFSVLIAACDTFRAGAVEQLRTHTRRLSALHPPEKHGGRTMVQLFEKGYGKDAAGIAMEAIAFARNQGFDVVLVDTAGRMQDNAPLMTALAKLITVNTPDLVLFVGEALVGNEAVDQLVKFNRALADHSMAQTPRLIDGIVLTKFDTIDDKVGAAISMTYITSKPIVFVGTGQTYCDLRSLNAKAVVAALMKA | 0.7296 | -0.1369 |  | 
